Data published in the supplement of paper PMC10126150.
± gives the standard deviation of the averaged measurements.

Tested on: ATP
Assay: switch fluorescence ratio, 500 uM ATP over buffer (Cy3 cluster intensity, sum of 5 cycles each) (fold (ratio)); higher = stronger signal-on switching upon ATP binding; sequences stand for … in TCGTCGGCAGCGTCAGATGTGTATAAGAGACAGTTTTTTTTTTTTTTTTTTTTTTTTT…TC
Details: aptamer strand: ATP DNA aptamer (quencher-CACCTGGGGGAGTATTGCGGAGGAAGG + anchor), 100 nM annealed; ATP concentration: 500 uM
In short: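 The fluorescence ratio divides summed target-cycle Cy3 intensity by summed buffer-cycle Cy3 intensity for each cluster and is averaged per switch-domain sequence. Cy3-labelled switching-strand clusters on a modified Illumina MiSeq flow-cell were annealed to 100 nM quencher-labelled ATP aptamer, then imaged in selection buffer and again after 15 min with 500 uM ATP at 22 °C. Five such cycles were run, with NaOH stripping and re-annealing between them, and clusters outside 100-1000 RFU were excluded.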
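Also: ATP exposure 15 min at 22 °C before imaging.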

Sequence GGCGATCACG has a switch fluorescence ratio of 0.9834 ± 0.006.
AAAGGGTAGA gave a switch fluorescence ratio of 1.04 ± 0.019.
For AAAGGGGGCT, the switch fluorescence ratio was 0.9912 ± 0.0026.
Work on AATATGTGTT yielded a switch fluorescence ratio of 1.02 ± 0.031.
With TTTTCGTAGG the switch fluorescence ratio was 0.983 ± 0.011.
Sequence GGGCATGTCG has a switch fluorescence ratio of 1.13 ± 0.013.
Sequence CGGCAGGGGT has a switch fluorescence ratio of 1.11 ± 0.064.
For CATTGAGTTG, the switch fluorescence ratio was 0.973 ± 0.018.
ATCAAGTCGG was tested, and the switch fluorescence ratio was 0.969 ± 0.02.
Work on TTAAGTGCTG yielded a switch fluorescence ratio of 1.02 ± 0.036.
Work on TCTAAGTTTT yielded a switch fluorescence ratio of 0.97 ± 0.01.
TTGGGACTAC was tested, and the switch fluorescence ratio was 1.02 ± 0.036.
GGGGTTGGTG showed a switch fluorescence ratio of 0.989 ± 0.02.
GTTGGTATGA was tested, and the switch fluorescence ratio was 0.989 ± 0.017.
TTGTTACATC showed a switch fluorescence ratio of 0.941 ± 0.016.
TATTGGGCTA gave a switch fluorescence ratio of 0.993 ± 0.044.
ATTATCCAGC showed a switch fluorescence ratio of 1.01 ± 0.017.
In the case of TGAGGCAGCT, the switch fluorescence ratio is reported as 1.06 ± 0.11.
GTCTTGGTTC gave a switch fluorescence ratio of 0.9721 ± 0.0084.
GGGTTTCGCG gave a switch fluorescence ratio of 1.01 ± 0.023.
TGAGGGGGGC gave a switch fluorescence ratio of 1.01 ± 0.044.
Sequence AGTTCTGGGT has a switch fluorescence ratio of 1.04 ± 0.081.
TGGGGGTATA gave a switch fluorescence ratio of 1.03 ± 0.06.
CGAGGGTATG was tested, and the switch fluorescence ratio was 1.01 ± 0.027.
TTATAGGCAG showed a switch fluorescence ratio of 0.987 ± 0.01.
CAGCCCGATC showed a switch fluorescence ratio of 1.22 ± 0.032.
For AGGGTAATGT, the switch fluorescence ratio was 0.9718 ± 0.0036.
Work on ACTCGGCGGT yielded a switch fluorescence ratio of 2.14 ± 1.7.
For TAATCTTAGA, the switch fluorescence ratio was 0.99489 ± 5.2e-05.
Work on AATTCAGGCA yielded a switch fluorescence ratio of 0.98668 ± 0.00049.
TGAGATTGTT gave a switch fluorescence ratio of 1.01 ± 0.028.
Work on ATTTGGGCTC yielded a switch fluorescence ratio of 0.98 ± 0.029.
With AGTTACATTG the switch fluorescence ratio was 1.02 ± 0.041.
CTTTGAGC was tested, and the switch fluorescence ratio was 1 ± 0.064.
With GGGCTATTTG the switch fluorescence ratio was 0.978 ± 0.013.
GGGGCTTGGT was tested, and the switch fluorescence ratio was 1.01 ± 0.034.
AAAAATTGTT showed a switch fluorescence ratio of 0.986 ± 0.027.
In the case of CGCTTGAGTC, the switch fluorescence ratio is reported as 1.025 ± 0.0062.
With ACGGGGATCA the switch fluorescence ratio was 0.981 ± 0.045.
GACGTAGACA gave a switch fluorescence ratio of 1.042 ± 0.01.
With TTTGGCTAGT the switch fluorescence ratio was 1.01 ± 0.019.
Sequence TAGGGGGCGC has a switch fluorescence ratio of 1.02 ± 0.039.
In the case of AGGCGGTGGG, the switch fluorescence ratio is reported as 1.044 ± 0.0059.
Work on TAGTCTGTGG yielded a switch fluorescence ratio of 0.993 ± 0.033.
In the case of AAGAGGTGCA, the switch fluorescence ratio is reported as 0.989 ± 0.034.
AGGCCTTGTG showed a switch fluorescence ratio of 0.985 ± 0.025.
Sequence GATTTGTCGT has a switch fluorescence ratio of 0.986 ± 0.022.
For TCATGTCGGT, the switch fluorescence ratio was 0.979 ± 0.017.
For GGGGTCATTG, the switch fluorescence ratio was 0.988 ± 0.023.
Work on AGGGTGGGGC yielded a switch fluorescence ratio of 1.03 ± 0.065.
GAATGGAGTA was tested, and the switch fluorescence ratio was 1.04 ± 0.039.
With TTGAATTTAA the switch fluorescence ratio was 0.981 ± 0.025.
Sequence CTCTTCTCTT has a switch fluorescence ratio of 0.9657 ± 0.0088.
In the case of CTAGAGGGCG, the switch fluorescence ratio is reported as 1.014 ± 0.0084.
CTGTGGCAGC was tested, and the switch fluorescence ratio was 1.033 ± 0.0099.
For ATTTATGAG, the switch fluorescence ratio was 0.977 ± 0.036.
TTTTTTAATA was tested, and the switch fluorescence ratio was 1 ± 0.036.
TTGCGAGGGG gave a switch fluorescence ratio of 0.9778 ± 0.006.
TGGGTCTTGA was tested, and the switch fluorescence ratio was 1.001 ± 0.0062.
GGGATAGCAC showed a switch fluorescence ratio of 1.09 ± 0.13.
For GGTTAATTAC, the switch fluorescence ratio was 1.02 ± 0.034.
For CAGGAGTAGC, the switch fluorescence ratio was 1.05 ± 0.018.
Sequence GCACCGGGGC has a switch fluorescence ratio of 0.971 ± 0.015.
GGAACTCATG was tested, and the switch fluorescence ratio was 0.959 ± 0.046.
TTGGTTCCAT was tested, and the switch fluorescence ratio was 1.02 ± 0.017.
In the case of AAGATTGTCG, the switch fluorescence ratio is reported as 1.14 ± 0.039.
TCAATTTCGG gave a switch fluorescence ratio of 0.99882 ± 0.00079.
Sequence ATAGTTTGCC has a switch fluorescence ratio of 0.994 ± 0.043.
Sequence TGGGTTGCGT has a switch fluorescence ratio of 1.01 ± 0.017.
With TGTTGGTCTG the switch fluorescence ratio was 0.978 ± 0.031.
For GGTCAAATAA, the switch fluorescence ratio was 0.99 ± 0.042.
For ATGGTAGGCT, the switch fluorescence ratio was 0.98 ± 0.032.
For ATTGGCAGGC, the switch fluorescence ratio was 1.05 ± 0.057.
Sequence AACTTAATG has a switch fluorescence ratio of 0.9926 ± 0.0025.
GAAGACTGGG was tested, and the switch fluorescence ratio was 1.02 ± 0.051.
In the case of GAGTAGAAAG, the switch fluorescence ratio is reported as 0.9989 ± 0.0061.
In the case of CGGCCCGCCC, the switch fluorescence ratio is reported as 1.27 ± 0.35.
With TATCGGATTC the switch fluorescence ratio was 1.02 ± 0.02.
For TTGCGGTTAG, the switch fluorescence ratio was 1.012 ± 0.0017.
AATGTCTTTG was tested, and the switch fluorescence ratio was 0.984 ± 0.013.
AATTTCAAGG showed a switch fluorescence ratio of 1 ± 0.048.
TTTAGATTTT gave a switch fluorescence ratio of 0.998 ± 0.026.
CGCTGGAGGG was tested, and the switch fluorescence ratio was 1.02 ± 0.093.
For GGGAAACATG, the switch fluorescence ratio was 0.979 ± 0.028.
With CGGGTTGTCA the switch fluorescence ratio was 0.9969 ± 0.0072.
Work on TCCGGGCGGA yielded a switch fluorescence ratio of 1.01 ± 0.021.
AGAGTGATGT was tested, and the switch fluorescence ratio was 1 ± 0.041.
In the case of CATGTGACCA, the switch fluorescence ratio is reported as 0.988 ± 0.038.
In the case of AAAGGTACGA, the switch fluorescence ratio is reported as 1.02 ± 0.016.
GACTTGGTAG showed a switch fluorescence ratio of 0.9884 ± 0.0053.
With ATTAGGCATG the switch fluorescence ratio was 1 ± 0.042.
In the case of AAACTTGGGT, the switch fluorescence ratio is reported as 1.04 ± 0.024.
For GGGCGGGGAT, the switch fluorescence ratio was 1.01 ± 0.018.
Sequence AAGGGATTTT has a switch fluorescence ratio of 0.999 ± 0.062.
GGGATATGGT was tested, and the switch fluorescence ratio was 0.986 ± 0.019.
In the case of TGTTTATTCG, the switch fluorescence ratio is reported as 0.97 ± 0.034.
In the case of AACGGGTGAG, the switch fluorescence ratio is reported as 0.9856 ± 0.0092.
GATGCGTCAC was tested, and the switch fluorescence ratio was 1.06 ± 0.056.
Sequence ATAAACTATA has a switch fluorescence ratio of 1.04 ± 0.06.
In the case of ACTGCTAGGG, the switch fluorescence ratio is reported as 1.02 ± 0.013.
ATGTCGGGCT showed a switch fluorescence ratio of 0.982 ± 0.042.
With ACATAGGGTA the switch fluorescence ratio was 1.01 ± 0.013.
For CCAGAAGGGG, the switch fluorescence ratio was 1.52 ± 0.89.
With AAAGTCCTAG the switch fluorescence ratio was 0.99 ± 0.016.
GCGGGGCGTA gave a switch fluorescence ratio of 0.995 ± 0.016.
TTTTATTAGT was tested, and the switch fluorescence ratio was 0.989 ± 0.044.
Work on TTCCGGGTG yielded a switch fluorescence ratio of 3.14 ± 0.75.
ACGGTGGAGT gave a switch fluorescence ratio of 1.02 ± 0.054.
TTGTGCAAGT gave a switch fluorescence ratio of 1.01 ± 0.013.
In the case of AGTAGCGGGT, the switch fluorescence ratio is reported as 0.981 ± 0.026.
Work on GGGCTTGCAG yielded a switch fluorescence ratio of 0.9812 ± 0.0089.
For GAAGTAGGGA, the switch fluorescence ratio was 1 ± 0.064.
Work on AGGATCGGTC yielded a switch fluorescence ratio of 1.02 ± 0.021.
In the case of GACTTTGAGC, the switch fluorescence ratio is reported as 1.01 ± 0.016.
In the case of ATATCACGCT, the switch fluorescence ratio is reported as 1.03 ± 0.023.
TGCCTGGCAG gave a switch fluorescence ratio of 1.08 ± 0.1.
CGACAGGTTC was tested, and the switch fluorescence ratio was 1.0621 ± 0.00069.
In the case of AATAAATT, the switch fluorescence ratio is reported as 0.9585 ± 0.0081.
GGTCTTAGTG was tested, and the switch fluorescence ratio was 0.982 ± 0.017.
In the case of GGGAACCAAG, the switch fluorescence ratio is reported as 0.997 ± 0.026.
Sequence TAAAAAAGGT has a switch fluorescence ratio of 1.04 ± 0.088.
GACGGCAATG showed a switch fluorescence ratio of 1.05 ± 0.032.
CGCATTTAGA was tested, and the switch fluorescence ratio was 1.04 ± 0.047.
AAAGGGGAAA was tested, and the switch fluorescence ratio was 1 ± 0.051.
Work on TGCAGGGCAG yielded a switch fluorescence ratio of 0.98885 ± 0.00071.
Work on AAGGTGGATA yielded a switch fluorescence ratio of 1.11 ± 0.032.
Sequence TCGTGTACGC has a switch fluorescence ratio of 1 ± 0.023.
For TATTAAACGA, the switch fluorescence ratio was 1.019 ± 0.0063.
In the case of ACCTCCAACT, the switch fluorescence ratio is reported as 1.179 ± 0.0092.
CAGTATTCGG showed a switch fluorescence ratio of 1 ± 0.015.
AGGGCGTCGA showed a switch fluorescence ratio of 0.986 ± 0.034.
AGGGGGTTGA was tested, and the switch fluorescence ratio was 1.03 ± 0.032.
Sequence TGTGGGGCTT has a switch fluorescence ratio of 1.01 ± 0.035.
ACACCAGCTA gave a switch fluorescence ratio of 0.9876 ± 0.0061.
For TGTGGAGAAG, the switch fluorescence ratio was 0.974 ± 0.025.
In the case of AATGGGTTCC, the switch fluorescence ratio is reported as 1.027 ± 0.0044.
GAGGGGGGAA was tested, and the switch fluorescence ratio was 1.01 ± 0.03.
GCCGGGCGGG gave a switch fluorescence ratio of 0.999 ± 0.038.
In the case of CGGGGGAGGA, the switch fluorescence ratio is reported as 0.997 ± 0.011.
AAGAATCTGC gave a switch fluorescence ratio of 0.985 ± 0.051.
ACCTTGTGCA showed a switch fluorescence ratio of 1.02 ± 0.04.
CGTAGTATAT was tested, and the switch fluorescence ratio was 1.25 ± 0.043.
Sequence CCGTTCTGGG has a switch fluorescence ratio of 0.9786 ± 0.0026.
In the case of ATGGCAGGG, the switch fluorescence ratio is reported as 1.016 ± 0.0061.
CAGGGGAAGG gave a switch fluorescence ratio of 1.04 ± 0.053.
TGCTTAGGAA was tested, and the switch fluorescence ratio was 1.005 ± 0.0072.
In the case of CGGTTATCTA, the switch fluorescence ratio is reported as 1.01 ± 0.054.
Work on CGATGGGATC yielded a switch fluorescence ratio of 1.13 ± 0.0074.
With TCTTAATTG the switch fluorescence ratio was 0.98356 ± 0.00079.
GGTAGGGCGG showed a switch fluorescence ratio of 1.01 ± 0.068.
In the case of CCTAGTCGGC, the switch fluorescence ratio is reported as 1.0715 ± 0.00095.
TGAGATCTGG was tested, and the switch fluorescence ratio was 0.982 ± 0.035.
AACGGTCAAA showed a switch fluorescence ratio of 1.02 ± 0.028.
Work on GAAGGTGGGA yielded a switch fluorescence ratio of 1.038 ± 0.0092.
CGAACTTGTT gave a switch fluorescence ratio of 1.01 ± 0.04.
Work on TCTCAGGTTG yielded a switch fluorescence ratio of 1.072 ± 0.0058.
TATTAAATTC gave a switch fluorescence ratio of 0.984 ± 0.039.
